The source of these data is US20090192048A1, “METHOD OF PRODUCING A […] AGENT FOR BINDING A LIGAND” (priority 2005, published 2009).

Assay type in all cases: physicochemical
The nature of data set [1]: Retention of peptides on Costar polypropylene V-bottom wells. The note with it: 400V scan; for Untreated fluorescence: unwashed; for Retained fluorescence: washed 15 minutes in 1 M NaCl in 10 mM tris-HCl (pH 8.0). As for the experimental part:
(§1) The retention of peptides 2DOS-1 to 2DOS-16 (see above) on polypropylene and polystyrene surfaces was compared:
(§2) 5 mM tris-HCl (pH 8.0) in 75% (v/v) aqueous acetonitrile was used as the solvent for the peptides and for TAMRA.
(§3) 20 μl aliquots of 5 μM peptides 2DOS-1 to 2DOS-16 and 5 μM TAMRA were pipetted into the wells of a Costar V-bottomed polypropylene microtitre plate, a Greiner V-bottomed polypropylene microtitre plate, and a Greiner V-bottomed polystyrene microtitre plate according to the scheme shown in FIG. 26:
(§4) The peptide samples were allowed to evaporate to dryness in the dark.
(§5) The peptide samples in the top two rows of the microtitre plates were then incubated for 15 minutes at room temperature in 250 μl of 1 M NaCl in 10 mM tris-HCl (pH 8.0).
(§6) After incubation, the wash buffer was pipetted up and down eight times in the well before removing the supernatant.
(§7) The washed and untreated peptide samples were then resuspended in 50 μl of 10 mM tris-HCl (pH 8.0) in 50% (v/v) aqueous acetonitrile.
(§8) The microtitre plates were imaged at 200 μm resolution on a Typhoon Trio Plus variable mode imager (Amersham Biosciences) with the green (532 nm) laser and the 580 BP 30 filter at the PMT voltages indicated below and at normal sensitivity. The scan height was set at +3 mm and the sample was pressed during scanning.
(§9) The fluorescence images were analysed using ImageQuant TL v2003.03 (Amersham Biosciences).

A short description of data set [2]: Retention of peptides on Greiner polypropylene V-bottom wells. The note with it: 400V scan; for Untreated fluorescence: unwashed; for Retained fluorescence: washed 15 minutes in 1 M NaCl in 10 mM tris-HCl (pH 8.0). As for the experimental part:
as §1, §2, §3, §4, §5, §6, §7, §8, §9

A short description of data set [3]: Retention of peptides 2DOS-1 to 2DOS-16 on a hydrophobic surface (polypropylene microtitre plate wells), water wash. The note with it: 400V scan; for Initial fluorescence (×10^3): 100 μl of 10 μM peptide before drying and washing; for Recovered fluorescence (×10^3): dried, washed ten times with 250 μl water, resuspended. As for the experimental part: The retention of peptides 2DOS-1 to 2DOS-16 on a hydrophobic surface (the wells of a polypropylene microtitre plate) was then investigated.
(§10) 10 mM tris-HCl (pH 8.0) in 50% (v/v) aqueous acetonitrile was used as the solvent for the peptides and for TAMRA.
100 μl aliquots of 10 μM peptides 2DOS-1 to 2DOS-16 and 10 μM TAMRA were placed in the wells of a Costar microtitre plate as shown in FIG. 13:
The microtitre plate was imaged at 200 μm resolution on a Typhoon Trio Plus variable mode imager (Amersham Biosciences) with the green (532 nm) laser and the 580 BP 30 filter at the PMT voltages indicated below and at normal sensitivity. The scan height was set at +3 mm and the sample was pressed during scanning.
The peptides were allowed to evaporate to dryness overnight in the dark and the microtitre plate was again scanned as described above.
The wells were then washed ten times with 250 μl of water.
The residual surface-bound peptides were finally resuspended in 100 μl of 10 mM tris-HCl (pH 8.0) in 50% (v/v) aqueous acetonitrile and the microtitre plate was again scanned as described above.
as §9
Quantification data (using the data from the 400V scan) is given in Table 2 and shown graphically in FIG. 15.

Data set [4] in a line: Retention of peptides in V-bottomed polypropylene wells. The following applies: V-bottom wells, 500V scan; for Untreated fluorescence: unwashed; for Retained fluorescence: washed 15 minutes in 1 M NaCl in 10 mM tris-HCl (pH 8.0). As for the experimental part: (§11) The retention of peptides 2DOS-1 to 2DOS-16 (see above) on polypropylene wells of different geometries was investigated:
as §10
(§12) 1 μl aliquots of 10 μM peptides 2DOS-1 to 2DOS-16 and 10 μM TAMRA were pipetted into the wells of a Costar V-bottomed polypropylene microtitre plate and a Greiner flat-bottomed polypropylene microtitre plate according to the following scheme as shown in FIG. 22:
as §4
(§13) The peptide samples in the top two rows of the microtitre plates were then incubated for 15′ minutes at room temperature in 250 μl of 1 M NaCl in 10 mM tris-HCl (pH 8.0).
as §6, §7
(§14) The microtitre plates were imaged at 200 μm resolution on a Typhoon Trio Plus variable mode imager (Amersham Biosciences) with the green (532 nm) laser and the 580 BP 30 filter at the PMT voltages indicated below and at normal sensitivity. The scan height was set at the platen and the sample was pressed during, scanning.
as §9

Data set [5] is described as follows: Retention of peptides on Greiner polystyrene V-bottom wells. The following applies: 400V scan; for Untreated fluorescence: unwashed; for Retained fluorescence: washed 15 minutes in 1 M NaCl in 10 mM tris-HCl (pH 8.0). As for the experimental part:
as §1, §2, §3, §4, §5, §6, §7, §8, §9

Data set [6] in a line: Retention of peptides in flat-bottomed polypropylene wells. The following applies: flat-bottom wells, 500V scan; for Untreated fluorescence: unwashed; for Retained fluorescence: washed 15 minutes in 1 M NaCl in 10 mM tris-HCl (pH 8.0). As for the experimental part:
as §11, §10, §12, §4, §13, §6, §7, §14, §9

Ends that are not written are not given here.

For the substance “N-TAMPA- Asp-Norleu- Ala-Norleu-Ser- Norleu-Lys-C [Peptide 2DOS-5]”, the Percent retention in data set [1] came out at 31%; in data set [2] it was 27%; in data set [4] it was 36%; in data set [5] it was 23%; in data set [6], 45%. Besides, the Untreated fluorescence in data set [1] is reported as 5,331,763; in data set [2], 3,817,250; in data set [4] it was 8,664,667; in data set [5], 745,029; in data set [6] it was 14,337,629. Further, the Retained fluorescence in data set [1] was 1,651,850; in data set [2] it was 1,048,978; in data set [4], 3,116,833; in data set [5], 171,500; in data set [6], 6,492,170. Moreover, the “Initial fluorescence (×10^3)” value in data set [3] was 32,473 ×10^3. Moreover, in data set [3], the “Recovered fluorescence (×10^3)” value is given as 1,270 ×10^3.

With “N-TAMPA-Asp-Asp- Ala-Asp-Ser-Asp- Lys-C ({TAMRA}-DDADSDK) [Peptide 2DOS-8]”, the Percent retention amounted to 1% in data set [1]; 2% in data set [2]; 2% in data set [4]; 1% in data set [5]; 4% in data set [6]. For the same substance, the Untreated fluorescence is 6,587,741 in data set [1]; 3,903,470 in data set [2]; 10,130,734 in data set [4]; 842,984 in data set [5]; 17,576,485 in data set [6]. In addition, the Retained fluorescence is given as 93,455 in data set [1]; 80,770 in data set [2]; 202,943 in data set [4]; 5,071 in data set [5]; 637,350 in data set [6]. Further, the “Initial fluorescence (×10^3)” value in data set [3] was 33,615 ×10^3. Also, the “Recovered fluorescence (×10^3)” value in data set [3] is given as 3 ×10^3.

Consider “N-TAMPA-Asp-Asp- Asp-Ala-Asp-Ser- Asp-Lys-Asp-C ({TAMRA}-DDDADSDKD) [Peptide 2DOS-4]”, for which the Percent retention in data set [1] was found to be 1%; in data set [2] it was 1%; in data set [4], 2%; in data set [5], 1%; in data set [6] it was 2%. Moreover, the Untreated fluorescence is listed as 5,661,181 in data set [1]; 3,937,734 in data set [2]; 8,265,596 in data set [4]; 783,885 in data set [5]; 11,885,905 in data set [6]. Moreover, the Retained fluorescence in data set [1] is 74,143; in data set [2], 50,669; in data set [4], 159,080; in data set [5], 6,714; in data set [6], 198,507. In data set [3], the “Initial fluorescence (×10^3)” value is reported as 32,313 ×10^3. The “Recovered fluorescence (×10^3)” value in data set [3] was 0 ×10^3.

For the substance “N-TAMPA-Asp-Asp- Asp-Asp-Asp-Asp- Asp-Asp-Asp-C ({TAMRA}-DDDDDDDDD) [Peptide 2DOS-12]”, the Percent retention in data set [1] is on record as 0%; in data set [2] it was 1%; in data set [4] it was 1%; in data set [5] it was 1%; in data set [6], 1%. Further, the Untreated fluorescence in data set [1] is 4,432,090; in data set [2] it was 3,235,590; in data set [4], 6,777,661; in data set [5], 684,832; in data set [6] it was 12,982,170. Moreover, the Retained fluorescence is recorded as 18,180 in data set [1]; 20,175 in data set [2]; 52,365 in data set [4]; 3,788 in data set [5]; 106,741 in data set [6]. For the same substance, the “Initial fluorescence (×10^3)” value in data set [3] is recorded as 26,433 ×10^3. Also, in data set [3], the “Recovered fluorescence (×10^3)” value was 1 ×10^3.

With “N-TAMPA-Asp-Asp- Asp-Asp-Asp-Asp- Asp-C ({TAMRA}-DDDDDDD) [Peptide 2DOS-16]”, the Percent retention in data set [1] worked out at 0%; in data set [2], 1%; in data set [4], 0%; in data set [5], 0%; in data set [6], 1%. Also, the Untreated fluorescence is 5,387,850 in data set [1]; 3,813,060 in data set [2]; 9,782,527 in data set [4]; 789,858 in data set [5]; 15,555,465 in data set [6]. Also, the Retained fluorescence in data set [1] was 16,194; in data set [2], 25,885; in data set [4] it was 44,420; in data set [5], 3,864; in data set [6], 229,090. The “Initial fluorescence (×10^3)” value in data set [3] is recorded as 30,335 ×10^3. For the same substance, the “Recovered fluorescence (×10^3)” value in data set [3] is given as 3 ×10^3.

For the substance “N-TAMPA-Norleu- Asp-Norleu-Asp- Norleu-Asp-Norleu- Asp-Norleu-C [Peptide 2DOS-9]”, the Percent retention was 17% in data set [1]; 12% in data set [2]; 14% in data set [4]; 10% in data set [5]; 16% in data set [6]. For the same substance, the Untreated fluorescence is given as 7,102,251 in data set [1]; 3,621,913 in data set [2]; 11,662,691 in data set [4]; 626,304 in data set [5]; 13,456,698 in data set [6]. Further, the Retained fluorescence in data set [1] is reported as 1,184,648; in data set [2], 439,252; in data set [4], 1,608,482; in data set [5], 62,023; in data set [6] it was 2,148,849. Moreover, the “Initial fluorescence (×10^3)” value in data set [3] was 34,587 ×10^3. The “Recovered fluorescence (×10^3)” value in data set [3] is reported as 2,382 ×10^3.

With “N-TAMRA-Asp- Norleu- Asp-Norleu-Asp- Norleu-Asp-C [Peptide 2DOS-13]”, the Percent retention in data set [1] was 8%; in data set [2], 10%; in data set [4], 11%; in data set [5] it was 9%; in data set [6], 17%. The Untreated fluorescence was 4,886,617 in data set [1]; 3,635,229 in data set [2]; 7,623,227 in data set [4]; 708,162 in data set [5]; 12,935,739 in data set [6]. Besides, the Retained fluorescence in data set [1] is on record as 387,738; in data set [2] it was 378,287; in data set [4], 806,022; in data set [5] it was 62,590; in data set [6] it was 2,162,164. Moreover, in data set [3], the “Initial fluorescence (×10^3)” value was 26,181 ×10^3. Further, in data set [3], the “Recovered fluorescence (×10^3)” value is 25 ×10^3.
